This data set deals with the molecule itself. Briefly: FRET or BRET. For orientation: Bioluminescence resonance energy transfer reports proximity on the nanometre scale.

B1: CCAAT/Enhancer Binding Protein α (C/EBPα) (natural protein, UniProt P05554 244-358, looked up)
chain: GPGGSLKGLAGPHPDLRTGGGGGGGAGAGKAKKSVDKNSNEYRVRRERNNIAVRKSRDKAKQRNVETQQKVLELTSDNDRLRKRVEQLSRELDTLRGIFRQLPESSLVKAMGNCA
On to B1, for which the “BRET ratio (Y ÷ B)” value was 0.39.

For the origin of these results see paper PMC3432581 (Methods in molecular biology (Clifton, N.J.), 2011).
